Laboratory results: patent US20150037339A1

What was measured:
[1] = target: Activin A (homodimer of two inhibin βA subunits; R&D Systems, #338-AC) (human) (UniProt P08476); experiment: SPR blocking: 5 nM Activin A + 30 nM binder over hActRIIB-hFc (Control 4) surface
[2] = target: Activin A (homodimer of two inhibin βA subunits; R&D Systems, #338-AC) (human) (UniProt P08476); experiment: SPR blocking: 5 nM Activin A + 0.00 nM binder over hActRIIB-hFc (Control 4) surface
[3] = target: Activin A (homodimer of two inhibin βA subunits; R&D Systems, #338-AC) (human) (UniProt P08476); experiment: SPR blocking: 5 nM Activin A + 3.75 nM binder over hActRIIB-hFc (Control 4) surface
[4] = target: Activin A (homodimer of two inhibin βA subunits; R&D Systems, #338-AC) (human) (UniProt P08476); experiment: SPR blocking: 5 nM Activin A + 60 nM binder over hActRIIB-hFc (Control 4) surface
[5] = target: Activin A (homodimer of two inhibin βA subunits; R&D Systems, #338-AC) (human) (UniProt P08476); experiment: SPR blocking: 5 nM Activin A + 15 nM binder over hActRIIB-hFc (Control 4) surface
[6] = target: Activin A (homodimer of two inhibin βA subunits; R&D Systems, #338-AC) (human) (UniProt P08476); experiment: SPR blocking: 5 nM Activin A + 0.00 nM binder over hActRIIA-hFc surface
[7] = target: Activin A (homodimer of two inhibin βA subunits; R&D Systems, #338-AC) (human) (UniProt P08476); experiment: SPR blocking: 5 nM Activin A + 1.88 nM binder over Follistatin-288 surface
[8] = target: Activin A (homodimer of two inhibin βA subunits; R&D Systems, #338-AC) (human) (UniProt P08476); experiment: SPR blocking: 5 nM Activin A + 0.94 nM binder over hActRIIA-hFc surface
[9] = target: Activin A (homodimer of two inhibin βA subunits; R&D Systems, #338-AC) (human) (UniProt P08476); experiment: SPR blocking: 5 nM Activin A + 15 nM binder over Follistatin-288 surface
[10] = target: Activin A (homodimer of two inhibin βA subunits; R&D Systems, #338-AC) (human) (UniProt P08476); experiment: SPR blocking: 5 nM Activin A + 30 nM binder over hActRIIA-hFc surface
[11] = target: Activin A (homodimer of two inhibin βA subunits; R&D Systems, #338-AC) (human) (UniProt P08476); experiment: SPR blocking: 5 nM Activin A + 1.88 nM binder over hActRIIA-hFc surface
[12] = target: Activin A (homodimer of two inhibin βA subunits; R&D Systems, #338-AC) (human) (UniProt P08476); experiment: SPR blocking: 5 nM Activin A + 1.88 nM binder over hActRIIB-hFc (Control 4) surface
[13] = target: Activin A (homodimer of two inhibin βA subunits; R&D Systems, #338-AC) (human) (UniProt P08476); experiment: SPR blocking: 5 nM Activin A + 60 nM binder over Follistatin-288 surface
[14] = target: Activin A (homodimer of two inhibin βA subunits; R&D Systems, #338-AC) (human) (UniProt P08476); experiment: SPR blocking: 5 nM Activin A + 3.75 nM binder over hActRIIA-hFc surface
[15] = target: Activin A (homodimer of two inhibin βA subunits; R&D Systems, #338-AC) (human) (UniProt P08476); experiment: SPR blocking: 5 nM Activin A + 0.94 nM binder over hActRIIB-hFc (Control 4) surface
[16] = target: Activin A (homodimer of two inhibin βA subunits; R&D Systems, #338-AC) (human) (UniProt P08476); experiment: SPR blocking: 5 nM Activin A + 30 nM binder over Follistatin-288 surface
[17] = target: Activin A (homodimer of two inhibin βA subunits; R&D Systems, #338-AC) (human) (UniProt P08476); experiment: SPR blocking: 5 nM Activin A + 0.94 nM binder over Follistatin-288 surface
[18] = target: Activin A (homodimer of two inhibin βA subunits; R&D Systems, #338-AC) (human) (UniProt P08476); experiment: SPR blocking: 5 nM Activin A + 7.50 nM binder over hActRIIB-hFc (Control 4) surface
[19] = target: Activin A (homodimer of two inhibin βA subunits; R&D Systems, #338-AC) (human) (UniProt P08476); experiment: SPR blocking: 5 nM Activin A + 60 nM binder over hActRIIA-hFc surface
[20] = target: Activin A (homodimer of two inhibin βA subunits; R&D Systems, #338-AC) (human) (UniProt P08476); experiment: SPR blocking: 5 nM Activin A + 3.75 nM binder over Follistatin-288 surface
[21] = target: Activin A (homodimer of two inhibin βA subunits; R&D Systems, #338-AC) (human) (UniProt P08476); experiment: SPR blocking: 5 nM Activin A + 7.50 nM binder over hActRIIA-hFc surface
[22] = target: Activin A (homodimer of two inhibin βA subunits; R&D Systems, #338-AC) (human) (UniProt P08476); experiment: SPR blocking: 5 nM Activin A + 0 nM binder over Follistatin-288 surface
[23] = target: Activin A (homodimer of two inhibin βA subunits; R&D Systems, #338-AC) (human) (UniProt P08476); experiment: SPR blocking: 5 nM Activin A + 7.5 nM binder over Follistatin-288 surface
[24] = target: Activin A (homodimer of two inhibin βA subunits; R&D Systems, #338-AC) (human) (UniProt P08476); experiment: SPR blocking: 5 nM Activin A + 15 nM binder over hActRIIA-hFc surface
Activin AB (human) = Activin AB (human) (UniProt P08476); experiment: SPR (Biacore 4000), captured on anti-human Fc, 200 nM ligand injected, 37 C
hBMP9 (human) = hBMP9 (human) (UniProt Q9UK05); experiment: as above
Activin AC (human) = Activin AC (human) (UniProt P55103); experiment: as above
GDF8 (human) = GDF8 (human) (UniProt O14793); experiment: as above
GDF11 (human) = GDF11 (human) (UniProt O95390); experiment: as above
hBMP4 (human) = hBMP4 (human) (UniProt P12644); experiment: as above
Activin B (human) = Activin B (human) (UniProt P09529); experiment: as above
hBMP7 (human) = hBMP7 (human) (UniProt P18075); experiment: as above
hBMP10 (human) = hBMP10 (human) (UniProt O95393); experiment: as above
hBMP2 (human) = hBMP2 (human) (UniProt P12643); experiment: as above
hBMP6 (human) = hBMP6 (human) (UniProt P22004); experiment: as above
Activin A (human) [25] = target: Activin A (human) (UniProt P08476); experiment: as above
Activin A (human) [26] = target: Activin A (human) (UniProt P08476); experiment: Octet cross-competition; binder on sensor tip; 50 nM hActivin A pre-bound with 1 uM H4H10432P2 (col 7); dark grey box
Activin A (human) [27] = target: Activin A (human) (UniProt P08476); experiment: Octet cross-competition; binder on sensor tip; 50 nM hActivin A pre-bound with 1 uM H4H10429P (col 6); dark grey box
Activin A (human) [28] = target: Activin A (human) (UniProt P08476); experiment: Octet cross-competition; binder on sensor tip; 50 nM hActivin A mixed with 1 uM Isotype control 12 (-) (col 12); light grey box (self)
Activin A (human) [29] = target: Activin A (human) (UniProt P08476); experiment: Octet cross-competition; binder on sensor tip; 50 nM hActivin A pre-bound with 1 uM H4H10423P (col 4); dark grey box
Activin A (human) [30] = target: Activin A (human) (UniProt P08476); experiment: Octet cross-competition; binder on sensor tip; 50 nM hActivin A pre-bound with 1 uM Control 3 (col 11); dark grey box
Activin A (human) [31] = target: Activin A (human) (UniProt P08476); experiment: Octet cross-competition; binder on sensor tip; 50 nM hActivin A pre-bound with 1 uM Control 1 (col 10); dark grey box
Activin A (human) [32] = target: Activin A (human) (UniProt P08476); experiment: Octet cross-competition; binder on sensor tip; 50 nM hActivin A pre-bound with 1 uM H4H10446P2 (col 1); dark grey box
Activin A (human) [33] = target: Activin A (human) (UniProt P08476); experiment: Octet cross-competition; binder on sensor tip; 50 nM hActivin A mixed with 1 uM Isotype control 13 (-) (col 13); light grey box (self)

Activin A (homodimer of two inhibin βA subunits; R&D Systems, #338-AC) (human), sequence (P08476 311-426 limits assumed): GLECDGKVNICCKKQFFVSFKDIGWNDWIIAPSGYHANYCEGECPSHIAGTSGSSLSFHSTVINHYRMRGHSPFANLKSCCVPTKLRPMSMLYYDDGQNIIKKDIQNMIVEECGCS
Activin A (human), sequence (P08476 311-426 limits assumed): as above
hBMP6 (human), sequence (P22004 382-513 limits assumed): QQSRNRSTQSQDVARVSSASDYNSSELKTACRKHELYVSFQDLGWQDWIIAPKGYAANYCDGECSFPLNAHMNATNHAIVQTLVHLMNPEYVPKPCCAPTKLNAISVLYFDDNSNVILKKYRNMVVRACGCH
hBMP7 (human), sequence (P18075 293-431 limits assumed): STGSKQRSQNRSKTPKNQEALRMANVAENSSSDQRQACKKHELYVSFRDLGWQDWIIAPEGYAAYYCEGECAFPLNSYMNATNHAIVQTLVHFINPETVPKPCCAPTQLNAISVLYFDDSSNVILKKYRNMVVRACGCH
hBMP2 (human), sequence (P12643 283-396 limits assumed): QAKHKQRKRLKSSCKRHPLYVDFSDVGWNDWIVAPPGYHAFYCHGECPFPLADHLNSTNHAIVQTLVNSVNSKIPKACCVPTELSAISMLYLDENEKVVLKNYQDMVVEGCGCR
hBMP9 (human), sequence (Q9UK05 320-429 limits assumed): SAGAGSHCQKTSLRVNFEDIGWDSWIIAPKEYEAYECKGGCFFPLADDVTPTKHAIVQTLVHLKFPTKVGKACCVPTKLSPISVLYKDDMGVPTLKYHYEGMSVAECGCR
hBMP4 (human), sequence (P12644 293-408 limits assumed): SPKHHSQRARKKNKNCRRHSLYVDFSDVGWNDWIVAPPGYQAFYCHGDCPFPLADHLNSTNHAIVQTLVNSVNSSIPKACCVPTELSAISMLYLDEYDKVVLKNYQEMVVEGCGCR
hBMP10 (human), sequence (O95393 317-424 limits assumed): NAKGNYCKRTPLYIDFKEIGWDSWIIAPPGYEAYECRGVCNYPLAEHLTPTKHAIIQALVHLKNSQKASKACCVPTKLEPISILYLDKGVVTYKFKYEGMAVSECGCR
Activin AB (human), sequence (P08476 311-426 limits assumed, chain 1 of 2): as the sequence (P08476 311-426 limits assumed) above
Activin AB (human), sequence (chain, as listed by the source limits assumed, chain 2 of 2): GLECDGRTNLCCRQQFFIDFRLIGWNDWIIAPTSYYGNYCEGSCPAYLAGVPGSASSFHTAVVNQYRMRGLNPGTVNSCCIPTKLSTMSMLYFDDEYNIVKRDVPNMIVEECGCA
Activin AC (human), sequence (chain, as listed by the source, chain 1 of 2): as the sequence (P08476 311-426 limits assumed) above
Activin AC (human), sequence (P55103 237-352, chain 2 of 2): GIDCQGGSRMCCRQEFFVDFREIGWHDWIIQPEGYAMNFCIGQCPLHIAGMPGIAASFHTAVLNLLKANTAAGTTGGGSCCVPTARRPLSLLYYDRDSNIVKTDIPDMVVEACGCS
Activin B (human), sequence (P09529 293-407 G326S limits assumed): as the sequence (chain, as listed by the source limits assumed, chain 2 of 2) above
GDF11 (human), sequence (O95390 299-407 limits assumed): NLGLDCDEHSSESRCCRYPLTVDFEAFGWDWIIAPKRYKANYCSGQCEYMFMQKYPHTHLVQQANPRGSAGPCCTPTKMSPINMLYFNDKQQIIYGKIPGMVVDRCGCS

% bound RU w/no inhibitor [1] [%] | % bound RU w/no inhibitor [2] [%] | % bound RU w/no inhibitor [3] [%] | % bound RU w/no inhibitor [4] [%] | % bound RU w/no inhibitor [5] [%] | % bound RU w/no inhibitor [6] [%] | % bound RU w/no inhibitor [7] [%] | % bound RU w/no inhibitor [8] [%] | % bound RU w/no inhibitor [9] [%] | % bound RU w/no inhibitor [10] [%] | % bound RU w/no inhibitor [11] [%] | % bound RU w/no inhibitor [12] [%] | % bound RU w/no inhibitor [13] [%] | % bound RU w/no inhibitor [14] [%] | % bound RU w/no inhibitor [15] [%] | % bound RU w/no inhibitor [16] [%] | % bound RU w/no inhibitor [17] [%] | % bound RU w/no inhibitor [18] [%] | % bound RU w/no inhibitor [19] [%] | % bound RU w/no inhibitor [20] [%] | Substance | also measured
1 | 100 | 120 | 2 | 2 | 100 | 170 | 207 | 5 | 1 | 190 | 133 | 9 | 139 | 135 | 7 | 172 | 33 | 0 | 145 | Control 3 (murine anti-Activin A monoclonal antibody from R&D Systems, catalog number MAB3381) | % bound RU w/no inhibitor [21]: 32%; % bound RU w/no inhibitor [22]: 100%; % bound RU w/no inhibitor [23]: 33%; % bound RU w/no inhibitor [24]: 1%
– | – | – | – | – | – | – | – | – | – | – | – | – | – | – | – | – | – | – | – | Isotype Control mAb (antibody) | binding response (resonance units) for 200 nM ligand (Activin AB (human)): -0.1 RU; binding response (resonance units) for 200 nM ligand (hBMP9 (human)): -1 RU; binding response (resonance units) for 200 nM ligand (Activin AC (human)): -0.1 RU; binding response (resonance units) for 200 nM ligand (GDF8 (human)): 0.5 RU; binding response (resonance units) for 200 nM ligand (GDF11 (human)): 3 RU; binding response (resonance units) for 200 nM ligand (hBMP4 (human)): 0.4 RU; binding response (resonance units) for 200 nM ligand (Activin B (human)): 1.9 RU; binding response (resonance units) for 200 nM ligand (hBMP7 (human)): 4.3 RU; binding response (resonance units) for 200 nM ligand (hBMP10 (human)): 0.3 RU; binding response (resonance units) for 200 nM ligand (hBMP2 (human)): -1 RU; binding response (resonance units) for 200 nM ligand (hBMP6 (human)): 5.1 RU; binding response (resonance units) for 200 nM ligand (Activin A (human) [25]): -0.1 RU
111 | 100 | 104 | 115 | 110 | 100 | 102 | 109 | 102 | 118 | 112 | 105 | 103 | 110 | 105 | 104 | 100 | 107 | 119 | 97 | isotype control antibody (Example 8) | % bound RU w/no inhibitor [21]: 115%; % bound RU w/no inhibitor [22]: 100%; % bound RU w/no inhibitor [23]: 102%; % bound RU w/no inhibitor [24]: 116%
– | – | – | – | – | – | – | – | – | – | – | – | – | – | – | – | – | – | – | – | isotype control antibodies (antibody) | binding response (Activin A (human) [26]): 0.14; binding response (Activin A (human) [27]): 0.22; binding response (Activin A (human) [28]): 0.15; binding response (Activin A (human) [29]): 0.18; binding response (Activin A (human) [30]): 0.2; binding response (Activin A (human) [31]): 0.26; binding response (Activin A (human) [32]): 0.22; binding response (Activin A (human) [33]): 0.24
